Results from patent US20220280633A1.

Test system: T1, fluorogenic substrate (R&D systems, cat no ES007), peptide YVADAPK between a 7-methoxycoumarin (Mca) group and a 2,4-dinitrophenyl (Dnp) group
T1 sequence: YVADAPK

With “commercial ACE-2 from Sino Biological (cat no 10108H08H20)” the “enzymatic activity assay using a fluorogenic substrate” value was “All four samples appeared to have similar levels of activity”.
